Numbered stars: 1 amine (or outer) side, 2 acyl side, 3 side chain; on linkers, the order of the positions; unused ones are H or OH. Square brackets hold non-standard residues; d marks the D form. * marks the point of attachment. DOTA = O=C(O)CN1CCN(CC(=O)O)CCN(CC(=O)*)CCN(CC(=O)O)CC1; Ttds = O=C(CCC(=O)[*:2])NCCCOCCOCCOCCCN[*:1]; Glutaryl = O=C(CCCC(=O)[*:2])[*:1]; Tle = CC(C)(C)[C@H](N)C(=O)O; 1206 = not defined here; GABA = NCCCC(=O)O
What was measured:
[1] = target: NTR1 on HT29 or NTR1-expressing HEK293 cells (UniProt P30989); test: cell-based or functional assay
Chain of NTR1 on HT29 or NTR1-expressing HEK293 cells (P30989 whole entry): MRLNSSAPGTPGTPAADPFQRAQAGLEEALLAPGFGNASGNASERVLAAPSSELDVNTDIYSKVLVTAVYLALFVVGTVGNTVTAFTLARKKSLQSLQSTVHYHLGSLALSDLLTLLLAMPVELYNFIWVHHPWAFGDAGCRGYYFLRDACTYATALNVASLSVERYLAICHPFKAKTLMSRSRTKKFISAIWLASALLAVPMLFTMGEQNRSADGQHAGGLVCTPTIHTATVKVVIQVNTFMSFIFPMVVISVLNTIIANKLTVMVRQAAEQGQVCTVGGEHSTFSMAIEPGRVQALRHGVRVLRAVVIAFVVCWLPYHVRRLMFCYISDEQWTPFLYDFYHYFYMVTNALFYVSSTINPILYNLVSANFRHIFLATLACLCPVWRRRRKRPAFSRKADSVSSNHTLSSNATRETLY

[2] = target: neurotensin receptor 1 (NTR1), human, prepared from CHO cells recombinantly expressing the human receptor (human) (UniProt P30989); test: radioligand binding assay (Cerep 0109): displacement of 0.05 nM 125I-(Tyr3-neurotensin) from human NTR1 prepared from CHO cells
Chain of neurotensin receptor 1 (NTR1), human, prepared from CHO cells recombinantly expressing the human receptor (human) (P30989 whole entry): as above

[3] = target: T1, delta 2 (DOP) (h), delta2 opioid receptor (human (printed as (h))), P41143; test: Cerep ExpresSProfile radioligand competition binding, reference compound (agonist radioligand)
T1 chain: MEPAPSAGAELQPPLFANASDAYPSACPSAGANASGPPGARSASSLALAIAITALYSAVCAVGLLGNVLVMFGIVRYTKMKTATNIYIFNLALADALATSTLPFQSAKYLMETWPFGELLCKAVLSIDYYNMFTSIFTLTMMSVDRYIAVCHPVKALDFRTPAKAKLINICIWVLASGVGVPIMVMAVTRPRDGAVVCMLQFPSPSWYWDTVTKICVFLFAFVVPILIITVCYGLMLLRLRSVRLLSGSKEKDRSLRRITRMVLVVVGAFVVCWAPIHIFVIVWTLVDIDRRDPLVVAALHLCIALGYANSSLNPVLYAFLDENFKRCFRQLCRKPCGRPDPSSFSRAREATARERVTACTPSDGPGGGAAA

{1206-Glutaryl}-[Ttds]K(DOTA)[Ttds][GABA][dR]RPY[Tle]L-OH (reading uncertain) [1206-Glutar-Ttds-Lys(DOTA)-Ttds-GABA-arg-Arg-Pro-Tyr-Tle-Leu-OH (17)]
Agonistic Effect EC50 [nM], functional Ca2+ mobilisation assay [1]: 7 nM | Antagonistic Effect IC50 [nM], functional Ca2+ mobilisation assay [1]: 3.4 nM | IC50 [2]: 0.32 nM

{1206-Glutaryl}-[Ttds][Ttds][Ttds]K(DOTA)[Ttds][Ttds][Ttds][GABA][dR]RPY[Tle]L-OH (reading uncertain) [1206-Glutar-Ttds3-Lys(DOTA)-Ttds3-GABA-arg-Arg-Pro-Tyr-Tle-Leu-OH (18)]
Agonistic Effect EC50 [nM], functional Ca2+ mobilisation assay [1]: > 50000 nM | Antagonistic Effect IC50 [nM], functional Ca2+ mobilisation assay [1]: 3.8 nM | IC50 [2]: 2.7 nM

YCGFC (modifications not checked) [DPDPE]
Ki [3]: 2 nM

{1206-Glutaryl}-[Ttds]K(DOTA)[Ttds][GABA]RRPY[Tle]L-OH (reading uncertain) [1206-Glutar-Ttds-Lys(DOTA)-Ttds-GABA-Arg-Arg-Pro-Tyr-Tle-Leu-OH (16)]
Agonistic Effect EC50 [nM], functional Ca2+ mobilisation assay [1]: 4 nM | Antagonistic Effect IC50 [nM], functional Ca2+ mobilisation assay [1]: 3.8 nM | IC50 [2]: 0.14 nM

Reference: US20170119913A1
